According to the RNAGym collection of RNA variant scans (doi:10.1073/pnas.2313332121):
For some assays here: Fewer inactive variants are shown than the library holds.

B1: TPR t1 (parent)
chain: GACCAAUCUGCCCUCAGAGCUCGAGAACAUCUUCGGAUGCAGAGGAGGCAGGCUUCGGUGGCGCGAUAGCGCCAACGUCCUCAACCUCCAAUGCAUCCCACCACAUGAUGAUGCCUGAAGAGCCUUGGUUUUUUG
B2: TPR 5TU (parent)
chain: GGAUCUUCUCGAUCUAACAAAAAAGACAAAUCUGCCACAAAGCUUGAGAGCAUCUUCGGAUGCAGAGGCGGCAGCCUUCGGUGGCGCGAUAGCGCCAACGUUCUCAACUAUGACACGCAAAACGCGUGCUCCGUUGAAUGGAGUUUAUCAUG

Variants of: B1
Test: polymerase ribozyme fitness, log enrichment relative to wild type (log ratio); higher = more active; in vitro selection for triplet polymerase activity
In short: (§1)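 Mutant libraries were PCR-built and transcribed for each subunit of a heterodimeric triplet polymerase ribozyme and selected for one round in triplicate at −7 °C, frozen, before gel excision of extended constructs and streptavidin-bead capture. Input and output libraries were Illumina-sequenced, keeping genotypes with ≥10 input reads and ≥1 read per output. Fitness is a logarithmic ratio of genotype to wild-type enrichment, in base 2, using inverse-variance-weighted replicate averages.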

Row | Variant | polymerase ribozyme fitness (log ratio)
1 | U125A U133C | -0.0467
2 | U125A U133A | -0.956
3 | U126G | -1.7
4 | U126A | -1.69
5 | U126C | -0.485
6 | G120C U132C | 1.38
7 | G117U C124A | -0.212
8 | A118U G127C | -1.35
9 | G120A C123A | -0.268
10 | G120U U131A | -1.19
11 | C124G U125A U134C | 0.622
12 | G120U U126G U132A | -0.734
13 | G117C U131G | -4.4
14 | G120C U130A | 0.0796
15 | U116C A119G | 1.96
16 | G117A U131A | -1.59
17 | U131G | -0.452
18 | U131A | -0.123
19 | U131C | 0.237
20 | G122A C123U | 0.258
21 | G122A C123G | 1.74

Row | Variant | polymerase ribozyme fitness (log ratio)
22 | G120A G128A | -0.497
23 | C123A U126A U130G U133G | 0.742
24 | G117A G120U | -1.9
25 | G117A | -1.1
26 | G117C | -3.16
27 | G117U | -2.21
28 | U116G | -1.95
29 | U116C | -0.392
30 | G120A U129G | -0.391
31 | G120C U126A | -0.0406
32 | C123A U130A | 0.213
33 | U116C U129G U132C | -3.87
34 | G120A U126A U131G | 0.608
35 | G120U U130C | 0.002
36 | G120A G135A | -0.0112
37 | U126C U132C | -1.79
38 | G120A U130A | 0.684
39 | U129G U132A | -3.7
40 | A118U G120U U133G | -0.107
41 | C123U U126A | 0.0607
42 | G127A G128U | -2.41

Row | Variant | polymerase ribozyme fitness (log ratio)
43 | A121G G135U | 0.495
44 | G128C U131A | -1.91
45 | A121U C123U | 2.27
46 | G117A A119C G120C G122A U133G | -3.42
47 | G120A C124A | 2.09
48 | G120U U129G | -1.17
49 | G117A A119G | 1.29
50 | U130A U133A | -1.4
51 | C123A U125G | -0.261
52 | U130A G135U | -0.655
53 | A121C G122U | 0.743
54 | A118G G122U | 0.311
55 | G117A A121U | 1.08
56 | G120U U125A | 0.531
57 | U131A U132C | 0.142
58 | G128U U130C | 0.0266
59 | G128A U130G | -1.43
60 | A121U U130G | 1.98
61 | A121G U133G | 1.55
62 | U130G U132A | -1.3
63 | G127U U130G | -0.841

Row | Variant | polymerase ribozyme fitness (log ratio)
64 | G127C G128U U131C | -1.37
65 | A118C C124G | -0.56
66 | G117C U129A | -6.61
67 | C124G U133A | 0.826
68 | C124A U130A | 1.09
69 | G117C A121U | -3
70 | G117C G127C | -5.04
71 | G117C G127A | -6.44
72 | C123G G127A | -0.249
73 | A118G C124G | -0.0684
74 | G120C C124A | 1.02
75 | G120A G127C G135U | -0.669
76 | C124U G127A G135U | -0.796
77 | U129A U132A | -1.56
78 | G117A U129G | -4.37
79 | A119G G120A | 1.35
80 | G117C G135U | -3.37
81 | U116C U132C | -1.33

Variants of: B2
Test: as above
In short: as §1

Row | Variant | polymerase ribozyme fitness (log ratio)
82 | A3G U6A A39U G84U U134A U144C A150U | ≤ -4.2
83 | A3C U31G C51U A60C A122C G140A | ≤ -4.2
